This assay concerns the target T1, EGFP-RABL2B, Q9UNT1.
T1 chain: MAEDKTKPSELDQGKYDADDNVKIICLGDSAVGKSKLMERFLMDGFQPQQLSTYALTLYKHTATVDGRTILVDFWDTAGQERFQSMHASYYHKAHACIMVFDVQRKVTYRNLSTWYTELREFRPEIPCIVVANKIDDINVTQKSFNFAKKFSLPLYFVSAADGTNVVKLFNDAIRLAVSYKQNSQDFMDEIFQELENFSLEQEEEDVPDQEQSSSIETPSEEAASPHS
Briefly: co-immunoprecipitation (IP anti-EGFP, Western blot anti-Myc), IP/input band quantitation. The conditions noted are these: chain shown with the change; lysates from HEK293T cells; Input is 2.5% of lysate used for IP; parent: 100. (A western blot detects proteins with antibodies after separation by electrophoresis.)

B1: CD8α-(HTR6-CT)-myc, Q9R1C8 L398A; L399A; L400A (protein)
chain: MVPEPGPVNSSTPAWGPGPPPAPGGSGWVAAALCVVIVLTAAANSLLIALICTQPALRNTSNFFLVSLFTSDLMVGLVVMPPAMLNALYGRWVLARGLCLLWTAFDVMCCSASILNLCLISLDRYLLILSPLRYKLRMTAPRALALILGAWSLAALASFLPLLLGWHELGKARTSAPGQCRLLASLPYVLVASGVTFFLPSGAICFTYCRILLAARKQAVQVASLTTGTATAGQALETLQVPRTPRPGMESADSRRLTTKHSRKALKASLTLGILLSMFFVTWLPFFVASIAQAVCDCISPGLFDVLTWLGYCNSTMNPIIYPLFMRDFKRALGRFVPCVHCPPEHRASPASPSMWTSHSGARPGLSLQQVLPLPLPPNSDSDSASGGTSGLQLTAQAAAPGEATRDPPPPTRAPTVVNFFVTDSVEPEIRQHPLGSPMN
As to B1, the percent of parent stood at 243%.

Values taken from PMC7772773.
